Laboratory results as given in patent publication US20170326260A1.
Positions count from the first letter of the chain named.

Biological target: partially (~50%) activated 3954-1204-c225v5
Assay: sandwich ELISA in human plasma; clone 41 coated as capture, biotinylated detection antibody, streptavidin-HRP, OD 450 nm

B1: antibody 58-1 (antibody, V domains shown)
VH: QSVEESGGRLVMPGGSLTLTCTVSGIDLSRYGMAWFRQAPGKGLKYIGAISSSGNEDYASWAIGRFTISKTSTTAELKMTSLTTEDTATYFCGRGWLSNNAYMWGPGTLVTVSS
VL: PVLTQTPTPVSAAVGGTVTINCQASQSIYNKNQLSWFQQKPGQPPKLLIHYASTLASGVSSRFKGSGSGTQFTLTISDVQCDDAATYYCLGDFSCSGVDCLVVGGGTEVVVEG
Binder B1 has a signal relative to the signal for intact 3954-1204-c225v5 of 50 % lower.

B2: antibody 72-3 (antibody, V domains shown)
VH: B1 VH with R30H, K45E, A62P, I63K, A75V, E76T, A101V
VL: B1 VL with P1Q, T8P, P9S, F37L, L47V, V102S
For B2, the signal relative to the signal for intact 3954-1204-c225v5 was 50 % lower.
